Laboratory results as given in patent US20170355757A1 (Regeneron, published 2017).

T1: monkey C5-mmh (monkey, UniProt P01031 19-1676 (human entry), limits assumed)
T1 construct: Recombinant monkey C5 with a C-terminal myc-myc-hexahistidine tag
T1 chain: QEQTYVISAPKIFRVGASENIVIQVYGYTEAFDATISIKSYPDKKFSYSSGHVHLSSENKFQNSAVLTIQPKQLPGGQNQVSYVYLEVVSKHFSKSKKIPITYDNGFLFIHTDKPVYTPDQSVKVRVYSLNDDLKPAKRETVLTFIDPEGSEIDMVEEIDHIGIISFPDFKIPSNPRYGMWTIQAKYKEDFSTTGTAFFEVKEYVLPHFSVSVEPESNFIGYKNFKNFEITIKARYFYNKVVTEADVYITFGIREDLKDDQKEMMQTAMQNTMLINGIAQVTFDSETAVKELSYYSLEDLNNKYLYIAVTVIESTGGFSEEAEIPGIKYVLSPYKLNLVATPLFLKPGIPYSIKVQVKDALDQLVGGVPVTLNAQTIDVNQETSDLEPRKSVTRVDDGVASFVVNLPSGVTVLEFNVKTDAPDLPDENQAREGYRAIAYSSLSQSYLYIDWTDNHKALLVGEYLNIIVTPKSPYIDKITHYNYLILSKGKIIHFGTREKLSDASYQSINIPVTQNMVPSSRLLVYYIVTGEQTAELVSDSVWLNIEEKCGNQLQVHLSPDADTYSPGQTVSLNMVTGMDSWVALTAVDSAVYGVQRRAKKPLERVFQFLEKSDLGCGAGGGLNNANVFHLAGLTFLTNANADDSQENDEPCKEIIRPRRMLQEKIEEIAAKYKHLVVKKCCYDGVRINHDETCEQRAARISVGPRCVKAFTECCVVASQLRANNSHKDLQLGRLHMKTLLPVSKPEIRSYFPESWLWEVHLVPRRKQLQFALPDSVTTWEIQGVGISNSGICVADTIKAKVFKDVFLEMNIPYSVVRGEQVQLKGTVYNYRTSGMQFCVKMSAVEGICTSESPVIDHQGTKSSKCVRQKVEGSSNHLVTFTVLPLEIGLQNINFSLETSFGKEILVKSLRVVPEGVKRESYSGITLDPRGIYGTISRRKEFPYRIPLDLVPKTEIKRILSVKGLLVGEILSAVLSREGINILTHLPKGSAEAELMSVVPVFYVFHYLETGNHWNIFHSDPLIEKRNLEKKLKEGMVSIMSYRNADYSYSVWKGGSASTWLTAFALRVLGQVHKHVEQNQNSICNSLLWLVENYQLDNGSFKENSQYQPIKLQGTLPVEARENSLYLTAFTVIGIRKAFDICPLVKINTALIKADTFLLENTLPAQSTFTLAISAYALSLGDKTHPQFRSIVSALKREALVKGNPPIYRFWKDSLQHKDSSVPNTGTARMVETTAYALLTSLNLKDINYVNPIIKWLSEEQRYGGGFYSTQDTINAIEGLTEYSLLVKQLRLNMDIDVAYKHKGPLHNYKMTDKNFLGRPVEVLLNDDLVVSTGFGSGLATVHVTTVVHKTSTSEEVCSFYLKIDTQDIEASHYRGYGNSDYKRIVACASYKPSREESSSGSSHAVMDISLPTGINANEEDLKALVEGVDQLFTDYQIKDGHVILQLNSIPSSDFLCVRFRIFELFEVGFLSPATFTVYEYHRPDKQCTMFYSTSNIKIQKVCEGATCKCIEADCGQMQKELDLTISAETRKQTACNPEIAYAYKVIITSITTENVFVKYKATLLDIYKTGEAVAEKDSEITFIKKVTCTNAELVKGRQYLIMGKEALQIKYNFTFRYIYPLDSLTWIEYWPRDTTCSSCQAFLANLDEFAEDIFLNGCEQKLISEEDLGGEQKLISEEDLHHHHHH


Tests used:
human C5 = target: T2, human C5 (human, UniProt P01031 19-1676); assay: SPR, mAb captured via anti-hFc, dissociation at pH7.4 vs pH6.0, 25C
T2 construct: Bought human C5 (EMD #204888, said elsewhere to be purified from plasma); also called hC5; complement component 5
Protocol: Effect of pH on the rate of dissociation of recombinant human C5 bound to purified anti-C5 monoclonal antibodies was determined using a real-time surface plasmon resonance biosensor using a Biacore T200 instrument. The Biacore sensor surface was first derivatized by amine coupling with a monoclonal mouse anti-human Fc antibody (GE, # BR-1008-39) to capture anti-C5 monoclonal antibodies expressed with human IgG4 Fc. All Biacore binding studies were performed using two running buffers PBS-T, pH7.4 (0.01M Na₂HPO₄/NaH₂PO₄, 0.15M NaCl, 0.05% v/v Tween-20, adjusted to pH7.4) and PBS-T, pH6.0 (0.01M Na₂HPO₄/NaH₂PO₄, 0.15M NaCl, 0.05% v/v Tween-20, adjusted to pH6.0). […] Binding dissociative half-lives (t %) were calculated from kd as: […]

human C5 R885C-mmh [1] = target: T3, human C5 R885C-mmh (human, UniProt P01031 19-1676); assay: SPR, mAb captured via anti-hFc, 25C
T3 construct: also called human C5 variant R885C
Summary of the method: (§1)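 Antibodies captured on anti-human Fc surface in HBST (HEPES pH 7.4, 3 mM EDTA); C5 reagents (commercial human C5 or myc-myc-His-tagged variants) associated 3 min, dissociated 8 min, at 25 °C or 37 °C. Sensorgrams fitted 1:1; KD = kd/ka, t½ = ln2/(60×kd).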

human C5 R885H-mmh [2] = target: T4, human C5 R885H-mmh (human, UniProt P01031 19-1676); assay: SPR, mAb captured via anti-hFc, 25C
T4 construct: also called human C5 variant R885H
Summary of the method: as §1

human C5 R885C-mmh [3] = target: T3, human C5 R885C-mmh; assay: SPR, mAb captured via anti-hFc, 37C
Summary of the method: as §1

monkey C5-mmh = target: T1, monkey C5-mmh; assay: SPR, mAb captured via anti-hFc, 37C
Summary of the method: as §1

human C5 R885H-mmh [4] = target: T4, human C5 R885H-mmh; assay: SPR, mAb captured via anti-hFc, 37C
Summary of the method: as §1

Row | t1/2 Ratio pH7.4/pH6.0 (human C5) | 100 nM Human C5 R885C-mmh Bound (RU) (human C5 R885C-mmh [1]) | Kd (human C5 R885C-mmh [1]) [nM] | koff (human C5 R885C-mmh [1]) [s⁻¹] | kon (human C5 R885C-mmh [1]) [M⁻¹ s⁻¹] | t1/2 (human C5 R885C-mmh [1]) [min] | 100 nM Human C5 R885H-mmh Bound (RU) (human C5 R885H-mmh [2]) | Kd (human C5 R885H-mmh [2]) [nM] | koff (human C5 R885H-mmh [2]) [s⁻¹] | kon (human C5 R885H-mmh [2]) [M⁻¹ s⁻¹] | t1/2 (human C5 R885H-mmh [2]) [min] | 100 nM Human C5 R885C-mmh Bound (RU) (human C5 R885C-mmh [3]) | Kd (human C5 R885C-mmh [3]) [nM] | koff (human C5 R885C-mmh [3]) [s⁻¹] | kon (human C5 R885C-mmh [3]) [M⁻¹ s⁻¹] | t1/2 (human C5 R885C-mmh [3]) [min] | 100 nM monkey C5-mmh Bound (RU) (monkey C5-mmh) | Kd (monkey C5-mmh) [nM] | koff (monkey C5-mmh) [s⁻¹] | kon (monkey C5-mmh) [M⁻¹ s⁻¹] | other results | Binder
1 | 1.5 | 144 | 3.27 | 0.000199 | 60900 | 58 | 197 | 4.05 | 0.000214 | 52900 | 54 | 21 | 8.9 | 0.000569 | 63800 | 20 | 29 | 12.7 | 0.000676 | 53300 | t1/2 (monkey C5-mmh): 17 min; 100 nM Human C5 R885H-mmh Bound (RU) (human C5 R885H-mmh [4]): 29 RU; Kd (human C5 R885H-mmh [4]): 50.4 nM; koff (human C5 R885H-mmh [4]): 0.00123 s⁻¹; kon (human C5 R885H-mmh [4]): 24300 M⁻¹ s⁻¹; t1/2 (human C5 R885H-mmh [4]): 9 min | H4H12168P (antibody, human IgG4, V domains shown, Human IgG4 Fc with S108P hinge mutation (H4H)) VH: QVQLVESGGGVVQPGGSLRLSCAASGFTFGGHAMHWVRQAPGKGLEWLAVISSDGSNKQYADSVKGRFTISRDNPKNTLYLQMNSLRVGDTAIYYCAKEVAPRYYYYGLDVWGQGTTVTVSS VL: DIQMTQSPSSLSASVGDRVTITCRASQDISNFLAWYQQKPGKVPKLLIYTASTLQSGVPSRFSGSGSGTDFTLTVSSLQPEDVATYYCQKYAGALTFGPGTKVDIK
2 | 2 | 253 | 0.534 | 9.49e-05 | 178000 | 122 | 259 | 0.491 | 0.000106 | 216000 | 109 | 69 | 2.78 | 0.000791 | 284000 | 15 | 195 | 8.88 | 0.00207 | 233000 | t1/2 (monkey C5-mmh): 6 min; 100 nM Human C5 R885H-mmh Bound (RU) (human C5 R885H-mmh [4]): 74 RU; Kd (human C5 R885H-mmh [4]): 1.91 nM; koff (human C5 R885H-mmh [4]): 0.0008 s⁻¹; kon (human C5 R885H-mmh [4]): 419000 M⁻¹ s⁻¹; t1/2 (human C5 R885H-mmh [4]): 14 min | H4H11686N (antibody, V domains shown, also called H2M11686N) VH: QVQLVESGGGLVKPGGSLRLSCAASGFTFSDYYMSWIRQAPGKGLEWVSYISSSGNTIKYADSMKGRFTISRDNAKKSLFVEMNSLRAEDTAVYYCARYKSSSDYFDHWGQGTLVTVSS VL: EIVLTQSPATLSLSPGERATLSCRASQSVRSYLAWYQQKPGQAPRLLIYDASNRATAIPARFSGSGSGTDFTLTISSLEPEDLAVYYCQQSGNWPLTFGGGTKVEIK
3 | 0.3 | 249 | 1.19 | 0.000182 | 153000 | 63 | 295 | 1.19 | 0.000187 | 158000 | 62 | 64 | 5.85 | 0.00104 | 177000 | 11 | 99 | 6.3 | 0.00117 | 186000 | t1/2 (monkey C5-mmh): 10 min; 100 nM Human C5 R885H-mmh Bound (RU) (human C5 R885H-mmh [4]): 68 RU; Kd (human C5 R885H-mmh [4]): 5.46 nM; koff (human C5 R885H-mmh [4]): 0.00106 s⁻¹; kon (human C5 R885H-mmh [4]): 195000 M⁻¹ s⁻¹; t1/2 (human C5 R885H-mmh [4]): 11 min | H4H12164P (antibody, human IgG4, V domains shown, Human IgG4 Fc with S108P hinge mutation (H4H)) VH: EVQLVESGGGLVRSGGSLRLSCAASGFTFNRYAMTWVRQAPGKGLEWVSAISGSGSSTYYTDSVKGRFTISRDNSKNSVDLQMHSLRVEDTAIYYCARGTTVTTGYGMDVWGQGTTVTVSS VL: DIQMTQSPSSLSASVGDRVTFTCQASQDITNSLNWYQQKPGRAPKLLIYDASYLKAGVPSRFSGSGSGTDFTFTISSLQPEDIATYYCQQYDDLPYTFGQGTKLEIK
4 | ≤ 0.3 | 168 | 0.289 | 0.000169 | 586000 | 68 | 177 | 0.25 | 0.000176 | 706000 | 66 | 68 | 1.74 | 0.000975 | 561000 | 12 | 137 | 0.133 | 5.5e-05 | 412000 | t1/2 (monkey C5-mmh): 210 min; 100 nM Human C5 R885H-mmh Bound (RU) (human C5 R885H-mmh [4]): 82 RU; Kd (human C5 R885H-mmh [4]): 1.49 nM; koff (human C5 R885H-mmh [4]): 0.000948 s⁻¹; kon (human C5 R885H-mmh [4]): 638000 M⁻¹ s⁻¹; t1/2 (human C5 R885H-mmh [4]): 12 min | H4H12159P (antibody, human IgG4, V domains shown, Human IgG4 Fc with S108P hinge mutation (H4H)) VH: QVQLVESGGGVVQPGRSLRLSCGASGFTFSTYGMHWVRQAPGKGLEWVAVIWDDGNNKYYADSVKGRFTISRDNSKNTLYLQMNSLRAEDTAVYYCARDSEVAPVGDYWGQGTLVTVSS VL: DIQMTQSPSTLSASVGDRVTIICRASQSINRWLAWYQQKPGKAPKLLIYKASSLESGVPSRFSGSGSGTEFTLTISSLQPDDFAAYYCQQYNDYSYTFGQGTKLEIK
5 | ≤ 0.5 | 427 | 0.447 | 0.00016 | 357000 | 72 | 442 | 0.394 | 0.000161 | 409000 | 72 | 61 | 2.05 | 0.00087 | 424000 | 13 | 60 | 1.67 | 0.000871 | 521000 | t1/2 (monkey C5-mmh): 13 min; 100 nM Human C5 R885H-mmh Bound (RU) (human C5 R885H-mmh [4]): 64 RU; Kd (human C5 R885H-mmh [4]): 1.5 nM; koff (human C5 R885H-mmh [4]): 0.000839 s⁻¹; kon (human C5 R885H-mmh [4]): 559000 M⁻¹ s⁻¹; t1/2 (human C5 R885H-mmh [4]): 14 min | H4H12170P (antibody, human IgG4, V domains shown, Human IgG4 Fc with S108P hinge mutation (H4H)) VH: QVQLVESGGGVVQPGRSLRLSCAASGFTFSGYGMHWVRQAPGKGLEWVALIWLDGSNDYYADSVKGRFTISRDNSKNTLYLQMNRLRAEDTAVYYCARDGPVAAIPDYWGQGTLVTVSS VL: DIQMTQSPSTLSASVGDRVTITCRASQSISRWLAWYQLKPGKAPKLLIYKASSLESGVPSRFSGSGSGTDFTLTISSLQPDDFATYYCQQYNTYSYTFGQGTKLEIK
